The record followed here is article PMC5434815, “The role of histidines in amyloid β fibril assembly” (Febs Letters, 2017).

Assay [1] has as its target Amyloid β 1–40 H6A. As to the kind of experiment: SPR; preformed fibrils immobilised on a CM5 chip by amine coupling (3500 RU), probed with monomers of the same variant; monomer onto fibril end; 25 °C, 20 μL/min, 20 mM phosphate pH 7.4, 150 mM NaCl; slow phase of dissociation only; KD = RD/RA x KD of Aβ1-40 wt (100 nM, from earlier work). (In general: SPR reads the build-up and loss of mass on a sensor chip optically.)

In assay [2] the target is Amyloid β 1–40 H6A. As to the kind of experiment: SPR; preformed fibrils immobilised on a CM5 chip by amine coupling (3500 RU), probed with monomers of the same variant; monomer onto fibril end; 25 °C, 20 μL/min, 20 mM acetate pH 5.5, 150 mM NaCl; slow phase of dissociation only; KD = RD/RA x KD of Aβ1-40 wt (1 nM, from earlier work).

Turning to Amyloid β 1–40 H6A (peptide), in the assay with Amyloid β 1–40 H6A [1], the Kd (as a rule, the concentration at which binding is half-saturated) stood at 427 nM; the RA (association rate relative to Aβ1-40 wt) was determined as 0.45; the RD (dissociation rate relative to Aβ1-40 wt) is 1.92. In the assay with Amyloid β 1–40 H6A [2], this substance registered a Kd of 1.43 nM, an RA (association rate relative to Aβ1-40 wt) of 1.94 and an RD (dissociation rate relative to Aβ1-40 wt) of 2.78.
